Experiments:
human serum albumin [1] = target: T1, human serum albumin (human, UniProt P02768 25-609); test: binding ELISA, coated albumin, pH 7.4
T1 construct: mature; Bought protein; biotinylated in the Octet and HTRF assays; also called HSA; HuSA

rabbit serum albumin = rabbit serum albumin (rabbit, UniProt P49065 25-608); test: binding ELISA, coated albumin, pH 7.4
mouse serum albumin [2] = target: T2, mouse serum albumin (mouse, UniProt P07724 25-608); test: binding ELISA, coated albumin, pH 7.4
T2 construct: also called MSA
T2 sequence (P07724 25-608 limits assumed): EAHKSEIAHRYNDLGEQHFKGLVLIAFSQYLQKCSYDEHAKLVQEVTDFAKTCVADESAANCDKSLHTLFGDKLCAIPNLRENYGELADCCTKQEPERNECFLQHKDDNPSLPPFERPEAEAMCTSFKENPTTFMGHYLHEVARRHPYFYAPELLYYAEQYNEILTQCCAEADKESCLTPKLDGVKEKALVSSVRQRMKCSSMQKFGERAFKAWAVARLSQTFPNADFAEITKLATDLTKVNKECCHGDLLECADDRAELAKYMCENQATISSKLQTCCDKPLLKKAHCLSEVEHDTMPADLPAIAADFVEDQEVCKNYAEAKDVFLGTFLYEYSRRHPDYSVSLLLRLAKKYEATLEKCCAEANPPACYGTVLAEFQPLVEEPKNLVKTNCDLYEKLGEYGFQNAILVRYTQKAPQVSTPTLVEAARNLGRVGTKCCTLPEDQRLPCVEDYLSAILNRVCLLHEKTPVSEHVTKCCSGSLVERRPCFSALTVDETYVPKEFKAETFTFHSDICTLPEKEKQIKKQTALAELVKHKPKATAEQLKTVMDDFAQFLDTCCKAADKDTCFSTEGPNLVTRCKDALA

cynomolgus serum albumin [3] = target: T3, cynomolgus serum albumin (cynomolgus); test: binding ELISA, coated albumin, pH 7.4
T3 construct: also called CSA; cyno serum albumin
T3 sequence (A2V9Z4 25-608): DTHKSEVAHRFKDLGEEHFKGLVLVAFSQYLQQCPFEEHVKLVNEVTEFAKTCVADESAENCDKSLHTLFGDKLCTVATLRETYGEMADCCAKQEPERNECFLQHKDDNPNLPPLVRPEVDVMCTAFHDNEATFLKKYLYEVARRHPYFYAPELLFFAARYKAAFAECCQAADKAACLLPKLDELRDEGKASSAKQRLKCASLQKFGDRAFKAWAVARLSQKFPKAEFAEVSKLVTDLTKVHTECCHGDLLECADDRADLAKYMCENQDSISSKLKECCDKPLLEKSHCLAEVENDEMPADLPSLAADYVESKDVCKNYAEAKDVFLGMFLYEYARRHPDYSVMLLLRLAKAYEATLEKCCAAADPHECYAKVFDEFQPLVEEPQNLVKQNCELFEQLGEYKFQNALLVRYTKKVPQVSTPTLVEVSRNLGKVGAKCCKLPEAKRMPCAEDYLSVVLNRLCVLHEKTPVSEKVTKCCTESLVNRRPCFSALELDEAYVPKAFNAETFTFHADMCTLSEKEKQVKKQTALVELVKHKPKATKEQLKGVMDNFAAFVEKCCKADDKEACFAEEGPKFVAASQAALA

porcine serum albumin = porcine serum albumin (porcine, UniProt P08835 25-607); test: binding ELISA, coated albumin, pH 7.4
Sequence of porcine serum albumin (P08835 25-607 limits assumed): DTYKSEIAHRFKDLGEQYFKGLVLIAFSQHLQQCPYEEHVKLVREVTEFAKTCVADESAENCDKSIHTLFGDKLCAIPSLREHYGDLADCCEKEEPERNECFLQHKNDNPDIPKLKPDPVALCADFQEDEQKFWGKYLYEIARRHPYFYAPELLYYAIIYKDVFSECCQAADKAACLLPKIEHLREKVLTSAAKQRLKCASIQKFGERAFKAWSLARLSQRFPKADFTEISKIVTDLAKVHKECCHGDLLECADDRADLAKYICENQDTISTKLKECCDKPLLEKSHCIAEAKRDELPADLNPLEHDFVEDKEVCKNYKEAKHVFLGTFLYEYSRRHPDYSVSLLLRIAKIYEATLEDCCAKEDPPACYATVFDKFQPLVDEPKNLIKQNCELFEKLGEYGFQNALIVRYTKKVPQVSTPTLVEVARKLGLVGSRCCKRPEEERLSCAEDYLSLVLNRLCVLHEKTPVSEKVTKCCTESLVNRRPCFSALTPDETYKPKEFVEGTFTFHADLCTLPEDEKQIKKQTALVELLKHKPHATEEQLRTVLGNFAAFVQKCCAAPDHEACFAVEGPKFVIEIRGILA

equine serum albumin = equine serum albumin (equine, UniProt P35747 25-607); test: binding ELISA, coated albumin, pH 7.4
Sequence of equine serum albumin (P35747 25-607 limits assumed): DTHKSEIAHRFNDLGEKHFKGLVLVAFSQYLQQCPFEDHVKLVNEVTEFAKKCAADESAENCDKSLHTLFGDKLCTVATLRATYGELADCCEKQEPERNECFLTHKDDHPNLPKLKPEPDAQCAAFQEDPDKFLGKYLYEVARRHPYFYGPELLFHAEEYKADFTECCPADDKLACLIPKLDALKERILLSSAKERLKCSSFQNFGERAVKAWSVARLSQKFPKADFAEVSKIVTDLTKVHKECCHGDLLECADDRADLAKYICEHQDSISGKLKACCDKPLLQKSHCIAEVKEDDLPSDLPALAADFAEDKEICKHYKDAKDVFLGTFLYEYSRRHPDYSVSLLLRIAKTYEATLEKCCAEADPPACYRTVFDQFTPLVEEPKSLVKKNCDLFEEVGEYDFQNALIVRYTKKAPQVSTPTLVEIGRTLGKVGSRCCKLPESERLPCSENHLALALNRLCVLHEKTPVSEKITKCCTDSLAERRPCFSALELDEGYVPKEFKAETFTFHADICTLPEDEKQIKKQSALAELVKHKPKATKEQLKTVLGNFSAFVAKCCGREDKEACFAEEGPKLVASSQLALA

canine serum albumin [4] = target: T4, canine serum albumin (canine, UniProt P49822 25-608); test: binding ELISA, coated albumin, pH 7.4
T4 sequence (P49822 25-608 limits assumed): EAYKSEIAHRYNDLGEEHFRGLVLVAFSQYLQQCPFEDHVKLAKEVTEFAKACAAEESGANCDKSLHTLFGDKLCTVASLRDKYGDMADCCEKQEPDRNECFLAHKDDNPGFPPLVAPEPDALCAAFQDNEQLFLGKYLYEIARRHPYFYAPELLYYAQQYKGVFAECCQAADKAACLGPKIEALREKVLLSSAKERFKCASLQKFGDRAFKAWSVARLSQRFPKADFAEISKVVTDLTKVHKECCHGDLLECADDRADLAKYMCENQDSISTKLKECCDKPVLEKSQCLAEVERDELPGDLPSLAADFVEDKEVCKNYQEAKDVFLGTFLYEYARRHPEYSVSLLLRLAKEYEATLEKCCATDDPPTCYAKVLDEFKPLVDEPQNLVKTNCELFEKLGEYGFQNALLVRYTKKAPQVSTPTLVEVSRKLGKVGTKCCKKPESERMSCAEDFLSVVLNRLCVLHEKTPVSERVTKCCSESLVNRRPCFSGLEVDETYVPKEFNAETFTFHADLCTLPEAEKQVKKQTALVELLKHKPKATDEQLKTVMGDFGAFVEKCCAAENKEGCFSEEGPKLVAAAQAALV

rat serum albumin = rat serum albumin (rat, UniProt P02770 25-608); test: binding ELISA, coated albumin, pH 7.4
Sequence of rat serum albumin (P02770 25-608 limits assumed): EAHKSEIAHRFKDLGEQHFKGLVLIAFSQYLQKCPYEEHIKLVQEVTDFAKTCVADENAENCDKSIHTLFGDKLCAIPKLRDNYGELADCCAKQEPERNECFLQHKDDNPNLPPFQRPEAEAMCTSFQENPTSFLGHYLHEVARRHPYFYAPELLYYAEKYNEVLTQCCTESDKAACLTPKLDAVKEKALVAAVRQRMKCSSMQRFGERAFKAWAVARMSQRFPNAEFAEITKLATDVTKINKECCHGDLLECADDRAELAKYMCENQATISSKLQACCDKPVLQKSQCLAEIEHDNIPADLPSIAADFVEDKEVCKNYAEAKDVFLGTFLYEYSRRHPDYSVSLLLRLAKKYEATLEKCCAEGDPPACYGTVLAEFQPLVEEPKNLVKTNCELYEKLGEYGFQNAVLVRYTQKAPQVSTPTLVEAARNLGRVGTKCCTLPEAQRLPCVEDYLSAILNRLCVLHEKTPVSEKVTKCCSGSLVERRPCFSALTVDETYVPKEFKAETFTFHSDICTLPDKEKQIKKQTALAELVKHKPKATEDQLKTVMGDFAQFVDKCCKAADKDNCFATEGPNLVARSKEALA

cynomolgus serum albumin [5] = target: T3, cynomolgus serum albumin; test: Octet biolayer interferometry, biotinylated albumin on SA sensors, pH 7.4
Procedure, shortened: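 SA sensor, antigen 1 μg/ml × 600 s; buffer PBS-T 0.01% Tween 20 + 1% casein, pH 6.0 or 7.4; 25° C, 1000 rpm. 1:1 global fit, Rmax unlinked.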

canine serum albumin [6] = target: T4, canine serum albumin; test: binding ELISA on coated albumin, pH 6.0, panel 'Canine SA Binding at pH 6.0'
mouse serum albumin [7] = target: T2, mouse serum albumin; test: binding ELISA on coated albumin, pH 6.0, panel 'MSA Binding at pH 6.0'
Experimental: (§1) Briefly, ELISA was performed as follow:
(§2) Human (Sigma-Aldrich); Cynomolgus and Mouse (Abcam); Equine (Abcam); Canine (Abcam); Mouse (Sigma-Aldrich); Rabbit (Sigma-Aldrich); Porcine (Sigma-Aldrich);, and Rat (Sigma-Aldrich) serum albumin were coated overnight on 96 well plates (Corning Costar) at 1 μg/ml in PBS at the appropriate pH (pH 6.0 or 7.4). Plates were saturated using 5% Casein (Sigma-Aldrich) buffer in PBS. […] Plates were then washed and AFFIMER® proteins were detected using a biotinylated polyclonal antibody anti-Cystatin (R&D System) for 90 minutes. After washing, streptavidin-HRP (Thermo Fisher Scientific) was added and incubated for 30 minutes.

mouse serum albumin [8] = target: T2, mouse serum albumin; test: binding ELISA on coated MSA, panel title 'Affimer binding to MSA, pH 7' (legend: pH 7.4)
Experimental: as §2
Briefly, PD-1 was coated overnight on the plate at 1 μg/ml in carbonate buffer. Then plates were saturated using 5% Casein/PBS buffer. […] After saturation, the mix was added to the plates and incubated for 90 minutes. Plates were then washed and the detection polyclonal antibody, biotinylated anti-PD-L1, was added. After washing the plates, streptavidin-HRP was added for 30 minutes. After a final wash, development of the reaction was performed using TMB (Pierce) and the plates were read using a plate reader at 450 nm (FIG. 26C).

human serum albumin [9] = target: T1, human serum albumin; test: binding ELISA on coated HSA, pH 7.4
Experimental: After saturation with 5% PBS Casein pH 7.5, plates were washed and a dilution of AFFIMER® polypeptides or controls were incubated for 90 minutes. Plates were then washed, and a biotinylated polyclonal antibody anti-cystatin A (R&D Systems) was added for 1 hour. Plates were washed and AFFIMER® polypeptides were detected using streptavidin-HRP. After a last washing step, TMB was added for the development of the experiment and the plates were read at 450 nm.

human serum albumin [10] = target: T1, human serum albumin; test: Biacore, immobilised HSA, pH 7.4
Experimental: (§3) Affinities for mouse, human, and cynomolgus serum were also measured at pH 7.4 for four (4) AFFIMER® binders using surface plasmon resonance (SPR) (FIG. 5, Table 5). […] A concentration titration of AFFIMER® monomers was run as analyte at a flow rate of 30 μl/min or 60 μl/min. Fc2-1, Fc3-1 and Fc4-1 kinetic data was blank subtracted and fit to a 1:1 Langmuir binding model (BIAcore Evalution software; GE) to calculate KD values.

cynomolgus serum albumin [11] = target: T3, cynomolgus serum albumin; test: binding ELISA on coated albumin, pH 6.0, panel 'CSA Binding at pH 6.0'
Experimental: as §1, §2

human serum albumin [12] = target: T1, human serum albumin; test: SPR (Biacore T200), albumin amine-coupled to CM5, Affimer analyte, pH 7.4
Experimental: as §3

mouse serum albumin [13] = target: T2, mouse serum albumin; test: as above
Experimental: as §3

cynomolgus serum albumin [14] = target: T3, cynomolgus serum albumin; test: as above
Experimental: as §3

Sequence of rabbit serum albumin (P49065 25-608 limits assumed): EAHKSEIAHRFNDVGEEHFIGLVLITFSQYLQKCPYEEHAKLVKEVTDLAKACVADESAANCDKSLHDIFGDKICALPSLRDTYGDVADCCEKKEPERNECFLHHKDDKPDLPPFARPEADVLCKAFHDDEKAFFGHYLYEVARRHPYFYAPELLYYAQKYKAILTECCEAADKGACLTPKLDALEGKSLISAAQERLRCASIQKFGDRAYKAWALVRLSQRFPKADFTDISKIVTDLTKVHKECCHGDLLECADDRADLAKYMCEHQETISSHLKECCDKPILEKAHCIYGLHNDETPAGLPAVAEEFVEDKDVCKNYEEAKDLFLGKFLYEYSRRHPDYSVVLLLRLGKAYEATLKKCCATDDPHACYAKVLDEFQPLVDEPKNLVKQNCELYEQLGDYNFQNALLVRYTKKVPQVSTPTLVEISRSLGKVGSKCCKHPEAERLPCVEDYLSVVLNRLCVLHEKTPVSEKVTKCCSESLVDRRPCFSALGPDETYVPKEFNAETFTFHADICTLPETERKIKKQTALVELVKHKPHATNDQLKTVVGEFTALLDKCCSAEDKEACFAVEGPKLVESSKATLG

- EC50 (human serum albumin [1]): 0.05 nM
- EC50 (rabbit serum albumin): 381 nM
- EC50 (mouse serum albumin [2]): 42.5 nM
- EC50 (cynomolgus serum albumin [3]): 12.8 nM
- EC50 (porcine serum albumin): 51.7 nM
- EC50 (equine serum albumin): 150 nM
- EC50 (canine serum albumin [4]): 21.5 nM
- EC50 (rat serum albumin): 4.18 nM
- koff (cynomolgus serum albumin [5]): 0.0177 s⁻¹
- kon (cynomolgus serum albumin [5]): 248000 M⁻¹ s⁻¹
- EC50 (read off the curve) (canine serum albumin [6]): ~2 nM
- EC50 (read off the curve) (mouse serum albumin [7]): ~0.7 nM
- EC50 (read off the curve) (mouse serum albumin [8]): ~6 nM
- EC50 (human serum albumin [9]): 0.04 nM
- Kd (human serum albumin [10]): 3.34 nM
- koff (human serum albumin [10]): 0.00563 s⁻¹
- kon (human serum albumin [10]): 1.69e+06 M⁻¹ s⁻¹
- EC50 (read off the curve) (cynomolgus serum albumin [11]): ~3 nM
- Kd (human serum albumin [12]): 2.59 nM
- koff (human serum albumin [12]): 0.0037 s⁻¹
- kon (human serum albumin [12]): 1.43e+06 M⁻¹ s⁻¹
- Kd (mouse serum albumin [13]): 67.8 nM
- koff (mouse serum albumin [13]): 0.139 s⁻¹
- kon (mouse serum albumin [13]): 2.04e+06 M⁻¹ s⁻¹
- Kd (cynomolgus serum albumin [14]): 112 nM
- koff (cynomolgus serum albumin [14]): 0.0546 s⁻¹
- kon (cynomolgus serum albumin [14]): 488000 M⁻¹ s⁻¹
B1: HSA-41 (designed binder)
chain: MIPRGLSEAKPATPEIQEIVDKVKPQLEEKTNETYGKLEAVQYKTQVLANFFQRRWPGSTNYYIKVRAGDNKYMHLKVFNGPWKFRNTDRGADRVLTGYQVDKNKDDELTGFHHHHHH
notes: also called HSA-41 parent; HSA-41 AH parent
